Reference: patent US20170137467A1 (CHROMOTEK, published 2017)

How the values were obtained:
[1] = target: T1, BC2T A6R peptide (BC2TA6X library) (human); assay: BC2TA6X library pulldown with immobilized Nb, LC-MS of the supernatant
T1 construct: also called arginine at position 6
T1 peptide: Ac-PDRKARVSHWQQ-NH2
Experimental: (§1) To investigate the binding specificity of the BC2T and derived mutants peptide libraries for each amino acid position of the sequence […] (SEQ ID NO:4) were synthesized with acetyl and amide groups located at the N-termini or C-termini respectively (Intavis). […] Incubations were performed in 300 μl PBS/0.01% CHAPS for 1 h on a HulaMixer (Life Technologies). Subsequent to a centrifugation step 10 μl supernatant were analyzed in a LC-MS procedure. Peptides were separated using an UltiMate3000 RSLCnano System (Thermo Scientific), composed of a C18 PepMap100μ-Precolumn (300 μm×5 mm; particle size: 5 μm; pore size: 100 Å—Thermo Scientific) and a C18 analytical column (Acclaim Rapid Separation LC (RSLC) Column: 150 mm×5 mm; particle size: 2.2 μm; pore size: 100 Å—Thermo Scientific). A step gradient was applied starting at 8% and ending after 20 min at 30% eluent B (80% acetonitrile, 20% H₂O, 0.1% formic acid). Peptides were analyzed using a FULL-MS-strategy detected by a Q Exactive Plus mass spectrometer (Thermo Scientific). As maximal injection time 100 ms was chosen while setting the AGC target to 3E6. The resolution was set to 70.000. Half-maximal signal areas were referenced to control precipitation approaches using a GFP-specific nanobody immobilized on agarose beads. All experiments were done in triplicates.

[2] = target: T2, BC2T A6K peptide (BC2TA6X library) (human); assay: as above
T2 construct: also called lysine at position 6
T2 peptide: Ac-PDRKAKVSHWQQ-NH2
Experimental: as §1

β-catenin peptide 81-95 = target: T3, β-catenin peptide 81-95 (human, UniProt P35222); assay: pepscan: 15-mer peptide on OVA-microspheres, biotinylated BC2-Nb, streptavidin-PE
T3 construct: synthetic 15-mer; additional N-terminal cysteine for coupling; also called Start 81 End 95
T3 peptide (looked up): DIDGQYAMTRAQRVR
Description: (§2) As negative controls, microspheres comprising Ovalbumin and the Myc-peptide ([…]) covalently coupled to OVA-microspheres were used. […] Evaluation of the PE-signals were done in a Flexmap 3D (Luminex).

β-catenin peptide 49-63 = target: T4, β-catenin peptide 49-63 (human, UniProt P35222); assay: as above
T4 construct: synthetic 15-mer; additional N-terminal cysteine for coupling; also called Start 49 End 63
T4 peptide (looked up): KGNPEEEDVDTSQVL
Description: as §2

β-catenin peptide 77-91 = target: T5, β-catenin peptide 77-91 (human, UniProt P35222); assay: as above
T5 construct: synthetic 15-mer; additional N-terminal cysteine for coupling; also called Start 77 End 91
T5 peptide (looked up): EQVADIDGQYAMTRA
Description: as §2

β-catenin peptide 61-75 = target: T6, β-catenin peptide 61-75 (human, UniProt P35222); assay: as above
T6 construct: synthetic 15-mer; additional N-terminal cysteine for coupling; also called Start 61 End 75
T6 peptide (looked up): QVLYEWEQGFSQSFT
Description: as §2

β-catenin peptide 57-71 = target: T7, β-catenin peptide 57-71 (human, UniProt P35222); assay: as above
T7 construct: synthetic 15-mer; additional N-terminal cysteine for coupling; also called Start 57 End 71
T7 peptide (looked up): VDTSQVLYEWEQGFS
Description: as §2

β-catenin peptide 45-59 = target: T8, β-catenin peptide 45-59 (human, UniProt P35222); assay: as above
T8 construct: synthetic 15-mer; additional N-terminal cysteine for coupling; also called Start 45 End 59
T8 peptide (looked up): SLSGKGNPEEEDVDT
Description: as §2

β-catenin peptide 5-19 = target: T9, β-catenin peptide 5-19 (human, UniProt P35222); assay: as above
T9 construct: synthetic 15-mer; additional N-terminal cysteine for coupling; also called Start 5 End 19
T9 peptide (looked up): ADLMELDMAMEPDRK
Description: as §2

β-catenin peptide 9-23 = target: T10, β-catenin peptide 9-23 (human, UniProt P35222); assay: as above
T10 construct: synthetic 15-mer; additional N-terminal cysteine for coupling; also called Start 9 End 23
T10 peptide (looked up): ELDMAMEPDRKAAVS
Description: as §2

β-catenin peptide 53-67 = target: T11, β-catenin peptide 53-67 (human, UniProt P35222); assay: as above
T11 construct: synthetic 15-mer; additional N-terminal cysteine for coupling; also called Start 53 End 67
T11 peptide (looked up): EEEDVDTSQVLYEWE
Description: as §2

β-catenin peptide 73-87 = target: T12, β-catenin peptide 73-87 (human, UniProt P35222); assay: as above
T12 construct: synthetic 15-mer; additional N-terminal cysteine for coupling; also called Start 73 End 87
T12 peptide (looked up): SFTQEQVADIDGQYA
Description: as §2

β-catenin peptide 41-55 = target: T13, β-catenin peptide 41-55 (human, UniProt P35222); assay: as above
T13 construct: synthetic 15-mer; additional N-terminal cysteine for coupling; also called Start 41 End 55
T13 peptide (looked up): TTAPSLSGKGNPEEE
Description: as §2

β-catenin peptide 37-51 = target: T14, β-catenin peptide 37-51 (human, UniProt P35222); assay: as above
T14 construct: synthetic 15-mer; additional N-terminal cysteine for coupling; also called Start 37 End 51
T14 peptide (looked up): SGATTTAPSLSGKGN
Description: as §2

β-catenin peptide 97-111 = target: T15, β-catenin peptide 97-111 (human, UniProt P35222); assay: as above
T15 construct: synthetic 15-mer; additional N-terminal cysteine for coupling; also called Start 97 End 111
T15 peptide (looked up): AMFPETLDEGMQIPS
Description: as §2

B1: BC2 nanobody (VHH)
VHH: QVQLVESGGGLVQPGGSLTLSCTASGFTLDHYDIGWFRQAPGKEREGVSCINNSDDDTYYADSVKGRFTIFMDNAKDTVYLQMNSLKPEDTAIYYCAEARGCKRGRYEYDFWGQGTQVTVSS
notes: Alpaca VHH, 122 aa; also called BC2-Nb; BC2 nanotrap (BC2-Nb immobilized on agarose/Sepharose beads); not shown: C-terminal 6xHis-tag added by the pHEN6 vector
B1: no binding [1]; no binding [2]; no binding (tested: 1 µg/ml BC2-Nb) (β-catenin peptide 81-95). B1: no binding (tested: 1 µg/ml BC2-Nb) (β-catenin peptide 49-63); no binding (tested: 1 µg/ml BC2-Nb) (β-catenin peptide 77-91); no binding (tested: 1 µg/ml BC2-Nb) (β-catenin peptide 61-75). B1: no binding (tested: 1 µg/ml BC2-Nb) (β-catenin peptide 57-71); no binding (tested: 1 µg/ml BC2-Nb) (β-catenin peptide 45-59); no binding (tested: 1 µg/ml BC2-Nb) (β-catenin peptide 5-19). B1: no binding (tested: 1 µg/ml BC2-Nb) (β-catenin peptide 9-23); no binding (tested: 1 µg/ml BC2-Nb) (β-catenin peptide 53-67); no binding (tested: 1 µg/ml BC2-Nb) (β-catenin peptide 73-87). B1: no binding (tested: 1 µg/ml BC2-Nb) (β-catenin peptide 41-55); no binding (tested: 1 µg/ml BC2-Nb) (β-catenin peptide 37-51); no binding (tested: 1 µg/ml BC2-Nb) (β-catenin peptide 97-111).
